From PMC8470133, “Aptasensor for the Detection of Mycobacterium tuberculosis in Sputum Utilising CFP10-ESAT6 Protein as a Selective Biomarker”

Molecular target: T1, CFP10-ESAT6 antigen (Mycobacterium tuberculosis, UniProt P9WNK5;P9WNK7 2-100;2-95)
T1 chain 1: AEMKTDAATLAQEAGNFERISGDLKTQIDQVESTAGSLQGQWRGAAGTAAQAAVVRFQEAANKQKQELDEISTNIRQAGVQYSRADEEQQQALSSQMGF
T1 chain 2: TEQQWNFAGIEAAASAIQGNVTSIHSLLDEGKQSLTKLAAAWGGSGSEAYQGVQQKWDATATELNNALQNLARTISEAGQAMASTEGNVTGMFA
Test: circular dichroism; Sensor: antigen incubated 1 h at 37 °C on aptamer electrode blocked with 0.25% BSA, PBS wash; DPV in 0.1 M PBS pH 7.4; CD buffer not given
Details: protein: commercial; copies: 1;1; folded

B1: CapApt (CFP10-ESAT6 aptamer) (ssDNA)
DNA: GCCTGTTGTGAGCCTCCTAACCCCATCTTATACGTATATGGACTCATCTCGACCCCCGATAGGCTTGGTACATGCTTATTCTTGTCTCCC
modifications: 5'-NH2
B1: binds.
